# Assay results published in the supplement of paper PMC9112550, “Optimization of the antimicrobial peptide Bac7 by deep mutational scanning” (BMC Biology, 2022).
# Test system: Escherichia coli TOP10
# Test: shrunken log2 fold change of peptide-encoding DNA abundance (4.5 h post-induction vs induction); higher = less antimicrobial activity (less host growth inhibition)
# Conditions: time post-induction: 4.5 h; library: site-saturation at positions 5, 18, 19, 20
# 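Further: peptides expressed intracellularly from a pBAD plasmid library in pooled LB shake-flask culture, induced with 0.3% L-arabinose, DNA abundance read by NGS, three biological replicates, DESeq2 with apeglm shrinkage.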
row,Sequence,shrunken log2 fold change
1,RRIRSRPPRLPRPRPRPWMQPRP,-0.0251
2,RRIRDRPPRLPRPRPRPIYQPRP,-0.431
3,RRIRFRPPRLPRPRPRPCEMPRP,0.0297
4,RRIRHRPPRLPRPRPRPAVMPRP,-0.0305
5,RRIRERPPRLPRPRPRPFMMPRP,-0.584
6,RRIRKRPPRLPRPRPRPNHSPRP,-0.321
7,RRIRVRPPRLPRPRPRPWKPPRP,0.0596
8,RRIRDRPPRLPRPRPRPVRNPRP,0.282
9,RRIRLRPPRLPRPRPRPKEPPRP,-0.0333
10,RRIRLRPPRLPRPRPRPVKSPRP,-0.075
11,RRIRYRPPRLPRPRPRPGRMPRP,-0.642
12,RRIRIRPPRLPRPRPRPRTDPRP,-0.158
13,RRIRVRPPRLPRPRPRPDTFPRP,-0.0845
14,RRIRKRPPRLPRPRPRPLPVPRP,0.431
15,RRIRCRPPRLPRPRPRPYVVPRP,0.0333
16,RRIRRRPPRLPRPRPRPPLAPRP,1.18
17,RRIRFRPPRLPRPRPRPQVMPRP,-0.265
18,RRIRGRPPRLPRPRPRPPWKPRP,0.435
19,RRIRIRPPRLPRPRPRPPKLPRP,0.0517
20,RRIRERPPRLPRPRPRPTGDPRP,0.321
21,RRIRWRPPRLPRPRPRPRCMPRP,0.204
22,RRIRKRPPRLPRPRPRPEQPPRP,0.328
23,RRIRVRPPRLPRPRPRPRHCPRP,-0.383
24,RRIRVRPPRLPRPRPRPMFCPRP,-0.0375
25,RRIRWRPPRLPRPRPRPLNPPRP,-0.0128

row,Sequence,shrunken log2 fold change
1,RRIRKRPPRLPRPRPRPNKIPRP,0.0339
2,RRIRKRPPRLPRPRPRPCEGPRP,0.0796
3,RRIRLRPPRLPRPRPRPKMPPRP,-0.0152
4,RRIRFRPPRLPRPRPRPSPYPRP,-0.481
5,RRIRARPPRLPRPRPRPLTHPRP,0.227
6,RRIRIRPPRLPRPRPRPDVEPRP,-0.054
7,RRIRCRPPRLPRPRPRPMPPPRP,0.914
8,RRIRHRPPRLPRPRPRPFFQPRP,-0.202
9,RRIRFRPPRLPRPRPRPMQKPRP,0.00713
10,RRIRARPPRLPRPRPRPNTSPRP,-0.0188
11,RRIRGRPPRLPRPRPRPPPGPRP,1.36
12,RRIRQRPPRLPRPRPRPTGMPRP,0.475
13,RRIRQRPPRLPRPRPRPLFLPRP,-0.65
14,RRIRKRPPRLPRPRPRPNHEPRP,-0.0766
15,RRIRCRPPRLPRPRPRPPLRPRP,0.35
16,RRIRSRPPRLPRPRPRPLHSPRP,-0.0322
17,RRIRSRPPRLPRPRPRPTPNPRP,0.306
18,RRIRPRPPRLPRPRPRPCRYPRP,0.0858
19,RRIRYRPPRLPRPRPRPNHIPRP,-1.27
20,RRIRDRPPRLPRPRPRPMMFPRP,0.43
21,RRIRDRPPRLPRPRPRPTMQPRP,0.625
22,RRIRVRPPRLPRPRPRPCPDPRP,-0.0269
23,RRIRDRPPRLPRPRPRPIMMPRP,-0.232
24,RRIRHRPPRLPRPRPRPLTCPRP,-0.0216
25,RRIRQRPPRLPRPRPRPRCCPRP,0.061

row,Sequence,shrunken log2 fold change
1,RRIRSRPPRLPRPRPRPEEIPRP,-0.00908
2,RRIRGRPPRLPRPRPRPTLKPRP,0.769
3,RRIRFRPPRLPRPRPRPIHPPRP,-0.385
4,RRIRLRPPRLPRPRPRPSRTPRP,-0.204
5,RRIRFRPPRLPRPRPRPIACPRP,-0.0937
6,RRIRWRPPRLPRPRPRPIDVPRP,-0.298
7,RRIRQRPPRLPRPRPRPAQFPRP,0.237
8,RRIRVRPPRLPRPRPRPLCTPRP,-0.0347
9,RRIRHRPPRLPRPRPRPGDDPRP,-0.044
10,RRIRWRPPRLPRPRPRPLISPRP,-0.0451
11,RRIRLRPPRLPRPRPRPEKHPRP,-0.262
12,RRIRPRPPRLPRPRPRPDDHPRP,-0.0314
13,RRIRGRPPRLPRPRPRPHLLPRP,0.306
14,RRIRNRPPRLPRPRPRPEFLPRP,0.00817
15,RRIRVRPPRLPRPRPRPDHYPRP,-0.149
16,RRIRIRPPRLPRPRPRPHAHPRP,-0.554
17,RRIRSRPPRLPRPRPRPHSHPRP,-0.282
18,RRIRRRPPRLPRPRPRPFQTPRP,0.0413
19,RRIRGRPPRLPRPRPRPMKVPRP,-0.0224
20,RRIRYRPPRLPRPRPRPSHVPRP,-1.58
21,RRIRARPPRLPRPRPRPETTPRP,1.61
22,RRIRIRPPRLPRPRPRPKKCPRP,-0.0871
23,RRIRRRPPRLPRPRPRPRVWPRP,0.686
24,RRIRGRPPRLPRPRPRPYGQPRP,0.0682
25,RRIRVRPPRLPRPRPRPIWFPRP,-0.0241

row,Sequence,shrunken log2 fold change
1,RRIRRRPPRLPRPRPRPIRIPRP,-0.106
2,RRIRFRPPRLPRPRPRPEQCPRP,0.285
3,RRIRIRPPRLPRPRPRPDDLPRP,0.118
4,RRIRYRPPRLPRPRPRPLDKPRP,-0.0449
5,RRIRSRPPRLPRPRPRPFMWPRP,-0.165
6,RRIRHRPPRLPRPRPRPNWMPRP,0.00348
7,RRIRPRPPRLPRPRPRPHVCPRP,0.171
8,RRIRHRPPRLPRPRPRPTEKPRP,0.0288
9,RRIRCRPPRLPRPRPRPRNAPRP,0.291
10,RRIRKRPPRLPRPRPRPLMPPRP,0.232
11,RRIRMRPPRLPRPRPRPDSKPRP,0.732
12,RRIRRRPPRLPRPRPRPWEVPRP,0.125
13,RRIRHRPPRLPRPRPRPINFPRP,-0.368
14,RRIRPRPPRLPRPRPRPDPVPRP,0.214
15,RRIRERPPRLPRPRPRPNTPPRP,0.0861
16,RRIRPRPPRLPRPRPRPTNDPRP,-0.00332
17,RRIRTRPPRLPRPRPRPKSLPRP,-0.291
18,RRIRSRPPRLPRPRPRPVDQPRP,0.034
19,RRIRCRPPRLPRPRPRPRCQPRP,-0.146
20,RRIRARPPRLPRPRPRPAEDPRP,1.19
21,RRIRNRPPRLPRPRPRPIKFPRP,-0.165
22,RRIRWRPPRLPRPRPRPLEVPRP,-0.0802
23,RRIRERPPRLPRPRPRPMEKPRP,-0.0775
24,RRIRSRPPRLPRPRPRPRANPRP,0.174
25,RRIRQRPPRLPRPRPRPKWWPRP,-0.0687

row,Sequence,shrunken log2 fold change
1,RRIRHRPPRLPRPRPRPHKSPRP,-0.337
2,RRIRQRPPRLPRPRPRPTFHPRP,0.199
3,RRIRGRPPRLPRPRPRPRKPPRP,0.399
4,RRIRGRPPRLPRPRPRPEQCPRP,0.0643
5,RRIRTRPPRLPRPRPRPMCDPRP,0.0157
6,RRIRVRPPRLPRPRPRPTLNPRP,-0.102
7,RRIRSRPPRLPRPRPRPIRCPRP,0.00778
8,RRIRGRPPRLPRPRPRPCEIPRP,0.128
9,RRIRWRPPRLPRPRPRPEIAPRP,0.355
10,RRIRFRPPRLPRPRPRPKPMPRP,0.521
11,RRIRYRPPRLPRPRPRPMCFPRP,-0.335
12,RRIRCRPPRLPRPRPRPWTQPRP,-0.12
13,RRIRPRPPRLPRPRPRPFFCPRP,0.0262
14,RRIRLRPPRLPRPRPRPKWVPRP,-0.25
15,RRIRQRPPRLPRPRPRPCDNPRP,-0.269
16,RRIRDRPPRLPRPRPRPTMHPRP,0.61
17,RRIRWRPPRLPRPRPRPCYKPRP,-0.00556
18,RRIRMRPPRLPRPRPRPAHGPRP,0.226
19,RRIRYRPPRLPRPRPRPLAIPRP,-0.778
20,RRIRPRPPRLPRPRPRPRAVPRP,1.68
21,RRIRWRPPRLPRPRPRPQAHPRP,0.00175
22,RRIRNRPPRLPRPRPRPSCIPRP,-0.507
23,RRIRYRPPRLPRPRPRPLENPRP,-0.0143
24,RRIRVRPPRLPRPRPRPVSHPRP,0.173
25,RRIRPRPPRLPRPRPRPMENPRP,0.127

row,Sequence,shrunken log2 fold change
1,RRIRVRPPRLPRPRPRPAQIPRP,-0.246
2,RRIRNRPPRLPRPRPRPNWHPRP,-0.111
3,RRIRDRPPRLPRPRPRPFYNPRP,-0.732
4,RRIRRRPPRLPRPRPRPLFTPRP,1.61
5,RRIRIRPPRLPRPRPRPESDPRP,0.052
6,RRIRFRPPRLPRPRPRPNKQPRP,0.0839
7,RRIRVRPPRLPRPRPRPFTGPRP,-0.115
8,RRIRRRPPRLPRPRPRPFDYPRP,-0.0528
9,RRIRERPPRLPRPRPRPNSDPRP,-0.142
10,RRIRHRPPRLPRPRPRPICVPRP,0.0683
11,RRIRARPPRLPRPRPRPMVWPRP,1.07
12,RRIRTRPPRLPRPRPRPNLPPRP,0.0474
13,RRIRSRPPRLPRPRPRPYDHPRP,-0.795
14,RRIRSRPPRLPRPRPRPMSIPRP,-0.214
15,RRIRPRPPRLPRPRPRPWKIPRP,-0.244
16,RRIRPRPPRLPRPRPRPPCLPRP,-0.153
17,RRIRRRPPRLPRPRPRPFRVPRP,0.12
18,RRIRQRPPRLPRPRPRPECPPRP,0.184
19,RRIRNRPPRLPRPRPRPSTLPRP,-0.474
20,RRIRARPPRLPRPRPRPAAAPRP,1.11
21,RRIRRRPPRLPRPRPRPKDPPRP,0.121
22,RRIRIRPPRLPRPRPRPHCCPRP,-0.642
23,RRIRWRPPRLPRPRPRPWTSPRP,-0.0584
24,RRIRPRPPRLPRPRPRPNYPPRP,-0.392
25,RRIRIRPPRLPRPRPRPEPLPRP,0.0641
